Results from article PMC8578620 (Nature Communications, 2021).

Molecular target: CAP256.wk34.c80 SOSIP.RnS2 Env trimer containing the native N160 glycan site (HIV-1 clade C, CAP256.wk34.c80 …, stabilised)

B1: 2G12 (antibody, V domains shown)
VH: EVQLVESGGGLVKAGGSLILSCGVSNFRISAHTMNWVRRVPGGGLEWVASISTSSTYRDYADAVKGRFTVSRDDLEDFVYLQMHKMRVEDTAIYYCARKGSDRLSDNDPFDAWGPGTVVTVSP
VL: VVMTQSPSTLSASVGDTITITCRASQSIETWLAWYQQKPGKAPKLLIYKASTLKTGVPSRFSGSGSGTEFTLTISGLQFDDFATYHCQHYAGYSATFGQGTRVEIK
binding result: binds
